These results are taken from the DeepSol protein solubility set.

A short description of this series: soluble on expression in E. coli; label from the status in PepcDB or PDB records.
As to “MGSDKIHHHHHHMQFGAKPLFENISVKFGGGNRYGLIGANGCGKSTFMKILCGDLDPSGGNVSLDVNERLGKLSQNQFGYEEFNLIDTVIMGHRELWKVKQERDRIYSLPEMSEEDGITVANLEMDFAEMDGYTAESRAGELLLGVGIGIDSHFGLMSEIAPGLKLRVLLAQALFSDPDVLLLDEPTNNLDIDTIRWLQDMLNQRSSTMVIISHDRYFLNSVCTHMADLDYGELRVYPGNYDEYMQAATQARERLLSDNAKKKAQISELQTFVARFSANASKAKQATSRARQIDKIKLDEVKASSRVNPFIRFEQEKKLFRNALVIENLTKGYDTPLFKDLNLIVEVGERIAVLGENGVGKTTLLRTLIHDIPQDAGTIQWSENANIGYYAQDHESDFANEMTLFEWMSQWRKPEDDDQSVRGILGRMLFGSDDIKKSVKVLSGGEKGRMLFGKLIMQKANILVLDEPTNHMDMESIESLNNALEMYEGTLIFVSHDRAFVSSLANRILEVTHTGVNDFRGTYDEFLASKGIEV”, the “soluble on expression in E. coli” value is recorded as “not soluble”.

“MGSDKIHHHHHHMSVTSTTSQNSLFDVIVIGSGIGGLVTATQLAAKGAKVLVLESYIIPGGSAGYFERQGYRFDVGASMIFGLGNRGTTNLLTRALQAVNSSVEAIADPVQIHYHLPSNLNLKVDRVYDKFLQNLAAYFPHETKGIRRFYDECWQVFKCLNRMDLLSLEEPRYLLRTFLQHPLACLGLLKYLPQNVGDIARRYIRDPELLKFIDIECYCWSVVPAAMTPMINAGMVFSDRHYGGVNYPKGGVGQIAQKLAEGLEKVGGEIRYQAKVAKIITEKYRAVGVQLTNGEIYRSKRIVSNATRWDTFEKLLPVDKMPSNEKDWQHSYKKSPSFLSLHMGVKESVLPQGTECHHIILEDWQNMTQAEGTLFVSIPTLLDPELAPEGCHIIHAFTPHWINDWQGFSVSDYEAKKEETAWRIIDRLEKIFPGLDAGLDYLEVGTPRTHRRFLGREDGTYGPIPRRKLRGLLSMPFNRTAIKGLYCVGDSTFPGQGLNAVAFSGFACAHRIAVDLGL”: the “soluble on expression in E. coli” value is on record as “not soluble”.

Regarding “MDAIFNNNFEKYKDDPEMTRALMTSKESLEDENWDTYLQWFKENKYEVLEVKEGKNKSTLTVKATFNSFADIPNDDVMGIIFTEVYKASKNKIKSLDEEDDIFDEEFMINVTNKLMDKSKKETKEIKVYMDKVNGKWDLIEDEDNDDDIVNMELISTMTPLLEKFLEITTEFEGFEGF”, the “soluble on expression in E. coli” value is on record as “not soluble”.

In the case of “MGSDKIHHHHHHMTYARKPVADAGIGVGIADDPASLSVLHKPGCAAAIWRRHIPSQAKTWLEGLDPSQLPTGRQMVRPDGVRHAVRDFCKRADTPLGDDLDWLQNDMSMLAEMFAQVMSARVLRLRLDAISTNACSRFHIDAVTARLVCTYRGSGTQYGISTDGRAPRRVFQVATGAPILLRGTLWPEDPPSGVLHRSPPIAGTGETRLVMVLDPIFDPDNGP”, the “soluble on expression in E. coli” value is “not soluble”.

On to “PQYIGGISNTFKYKNWEFSCFVTMQAGNKIRMNPSFDPAFADLNVFSKEYYNRWLNPGDERKTNIPVIPSQDLIRNIGKENIEKAYNTYNYSQNRVADGSFVRMKNISLGYRLPQRFLSHLKIKQMNVKVNVTNPFLIYSDRKLNGQDPEFYRSGGVSLPTPKQYTMTLNVEF”, for which the “soluble on expression in E. coli” value is “not soluble”.

Take “GPGSMSESCSGDYYHFVTQRSQAAEITLPIPSFCKPLAASVQPFGEGKAGLLASFFDPEQHAWVVRQLPVQESWSHQPPPSLTVRVATLVDPANLYELRVSLSSVLDGVDNDDLCALQRRSQIYGLVVEEHLADKSGAALRSAGAEGRLPQLREAVTLAAPVDVMNGFVLTGGGFLSDFPVLRDGPALPRSMNTVYDDILAGEDFCGPPMPAGGARFAGTDSAAHTSGGRGSDSPVNSNEPREYTAWSVTAAANAGLACISMGLRRRSPIEWPQLQSESQHTHSASPRERTGPGTSLAISPGPLRAKPPPSVVSDTGALAVYQCTGVPVSGLRPNEHGDGGNGAHGVVSAYSSAAVSTMAARPLLETLTLRGEVDVKLSRRDGEEWGISLPPPHGSLKFSMGPNRELVAAARRYFYCE”: the “soluble on expression in E. coli” value is on record as “not soluble”.

Regarding “MGSDKIHHHHHHMVSTIGIVSLSSGIIGEDFVKHEVDLGIQRLKDLGLNPIFLPHSLKGLDFIKDHPEARAEDLIHAFSDDSIDMILCAIGGDDTYRLLPYLFENDQLQKVIKQKIFLGFSDTTMNHLMLHKLGIKTFYGQSFLADICELDKEMLAYSLHYFKELIETGRISEIRPSDVWYEERTDFSPTALGTPRVSHTNTGFDLLQGSAQFEGKILGGCLESLYDIFDNSRYADSTELCQKYKLFPDLSDWEGKILLLETSEEKPKPEDFKKMLLTLKDTGIFAVINGLLVGKPMDETFHDDYKEALLDIIDSNIPIVYNLNVGHATPRAIVPFGVHAHVDAQEQVILFDYNK”, the “soluble on expression in E. coli” value is “not soluble”.

On to “MGSDKIHHHHHHMDLSSNRLAGKSILITRPLHQAGGLATWVRELGGEPWLFPVLEISDSENKQPLLDLIARLDEFDLAVFVSPNAVEKVIPLVQVSHSWPRHVLVATVGKGSARVLERYGITNVIVPEEGSDSEALLRMPQFQVMQGRHVVIFRGNDGRRLLGDTLRERGASVEYIECYRRHKPEADPLPLLKHWRDDGIQAVIISSSEGLDNLFDMIGETGQQLLKATPVFTAHERIERKARELGIRKIYRTLLGDEGTVQGLLEYFEKM”, for which the “soluble on expression in E. coli” value is given as “not soluble”.

Take “MGRFLLVDKKAPNYENLIDKEMNEIYERVKKIDPNQNEFLQAFHEILYSLKPLFMEDPKYLPIIEMLSEPERLVQFRVCWIDDNGIQRKNRGFRVQFNSTLGIYKGGLRFHPSVNLSIVKFLGFEQIFKNSLTGLSMGGAKGGSDFDPKGKSDNEIMKFCQSFMNELYRHIGPRTDVPAGDIGVGGREIGYLFGQYKKIANSFNGTLTGKNEKWGGSILRTEATGYGLVYFVLEVLKSLNIQMDKQTAIVSGSGNVALYCVQKLLQLNVKVLTMSDSNGYIYEPNGFTNDDLNFIIELKEVRKGRIEEYLKHSSTAKYFPNEKPWNVKCTLAFPCATQNEIDLDDAKLLHKNGCILVGEGANMPSTIEAINYLKENKIILCPSKAANAGGVAISGLEMSQNFQFAKWTKETVDEKLKEIMKNIFISSSESALKYANNKYDLQVGANISGFLKVADSYIQQGL”: the “soluble on expression in E. coli” value was “soluble”.

Consider “MGKYTEQAKLAAVKEYCAGKAGLRDVAHRHDVDFSCLRQWVAAYQIHGPAALKEKRRQRYSDEFKLAVLKRMHDERLSLRQTAALFDIRQFGIINLWQRLFDEGALNASSKPPKKAGRPRKMTTPLPPVNSSPINDESRSRDELLAEVKQLRMEVDYLKKLDALVQKKQRIAQQKKRKSLEHHHHHH”, for which the “soluble on expression in E. coli” value is reported as “not soluble”.

As to “MNNTYNEKTHTLIKQLLKKFSPKVPGFAYMASFDSGVTYKGAVGLASIEENLPITTKSVFNIASVSKQFTAFSILLLEQEGRLSLDDSIVKFVPSIGTYAEPVTLRHLIHHTGGLVDYMELAHAENIEFTDILTVEQSLKHLNGHQIARFPVGTKFEYSNTGYFLLSLVVEKVSGKSLRQFAKERIFDSLNMKDTTIVDCYPTTISIARGYSKNEQGAYMVYESPWEHTGDGAVHATVEDLVKWGENLTTGTVGGKELVKRMSEIGPEISPTRETIIANEDYAFGLRLAEGFNCRYLEHSGSWAGYRSYFMRFPKEYLTVVVLSNYDGFDSKKYANEIAGIILEK”, the “soluble on expression in E. coli” value is on record as “not soluble”.

In the case of “MAQVLSLENVTLAVEKENSKQAIVKHVSFFINEGEIVALVGESGSGKSVTAQSIIGLNQESIQFDDGNISFESKDLTNLQESEWNQIRGKDISFIFQDPLSSLNPTMKVGRQITEVILQHEKKSKKEAKEIAINLLNDLGIHEAEKRFEQYPHQLSGGMRQRICLAIAFACHPKLVIADEPTTALDVTIQKQIMGLLKERKEKQNTSILLITHDLALVREVADRVVVMYGGRIVEKGTIQEVIGSPKHPYTKSLLQAIPNMDDAEKVLRAIEGTTPSIETLNSFGCPFVNRCPVAIQECIHRFPERTTYSAEHSSHCWQHVLEHDRAKSKEKVNVS”, the “soluble on expression in E. coli” value was “not soluble”.

As to “MGSDKIHHHHHHMSDTDKQAFLTSVSSKEQVKKVIEPRKVTKCPHCQSTHFVKNGKDCGNQRFLCRDCKKSFVEQTGTILYNTQKDIEVWEKYIHCMIEKYPLRKCAEICKINLATAFTWRHKILDALQNMMNEVELDGIVQADETYSTISYKGHHKNFNLPRPAHKRGTRATKRGISKEQVCVPCGINLDGKSVARISNLGKPSLKNIN”, the “soluble on expression in E. coli” value is recorded as “not soluble”.

For the sequence “MEFTGDLGLGHVTIRASTSSNIRSEVLMEGEYGFIGKSIPTDNPAGQRIIFCGGEGTSSTTGAQITLYGANNTDSRRIVYNGDEHLFQSADVKPYNDNVTALGGPSNRFTTAYLGSNPIVTANGERKTEPVVFDDAFLDAWGDVHYIMYQWLDAVQLKGNDARIHFGVIAQQIRDVFIAHGLMDENSTNCRYAVLCYDKYPRMTDTVFSHNEIVEHTDEEGNVTTTEEPVYTEVVIHEEGEEWGVRPDGIFFAEAAYQRRKLERIEARLSALEQK”, the “soluble on expression in E. coli” value is given as “soluble”.

For the sequence “MGSDKIHHHHHHMKYISPGDWFSLEYPMGWHEFEDTEESFLFYNPDRWTGNFRISAYKDEAADYGPQCIAYELKENTSSALVKVGKWDCAYSAETFQEEGAWYTTHIWVTGEGDLSFECSFTVSKGGDKHPAEEIIRSLQVRKEGVSHPREIIPIRVLEIGEVNTAFEWASTTIKKQLTKDFTASESDIDSIQQVMDSGRFQTQQRMAWENFGIAFGAILVNEMEGMEWVTVIEGQKEYPALQFMCSDMVLDPAALVWGKAKKGLPCDLKSEFRKIKREAEAVLDDLNK”, the “soluble on expression in E. coli” value is listed as “not soluble”.

In the case of “ESRLDRILESGVLRVATTGDYKPFSYRTEEGGYAGFDVDMAQRLAESLGAKLVVVPTSWPNLMRDFADDRFDIAMSGISINLERQRQAYFSIPYLRDGKTPITLCSEEARFQTLEQIDQPGVTAIVNPGGTNEKFARANLKKARILVHPDNVTIFQQIVDGKADLMMTDAIEARLQSRLHPELCAVHPQQPFDFAEKAYLLPRDEAFKRYVDQWLHIAEQSGLLRQ”, the “soluble on expression in E. coli” value is reported as “not soluble”.

With “MGSDKIHHHHHHMAIEITTAEKRLLQRVSIPPRPETLLTVSREAKKSEPDVNVIAESISADMSIAAAVLQVVNSAAYRRAREVDSIQQAVMTLGFRRVFPIVRAVALKSALTSDYDLSEFWRYNEWVAGACVMIAEAIGRPELRDHAYMLGLFQSSGIPVMLAEFDDYADLLNAAESTPWQQVQAKELELFQTSHTTIGALLAQQWKLPKIVVEVIYYLFEDSSIFNHSSELDNLTLDLLGILKISRYAIDLRTRSLAGEEEWQYVQDGVLEHFQIDEFKVDEMLQIVHEELFDTEA”, the “soluble on expression in E. coli” value is listed as “not soluble”.

Take “MGSDKIHHHHHHMKKILVVGDFIKGSGLTNYLLNIYSSLPKDEFLISCVSYSGQHNIDTVLEEKKWEKFEVTPITQDIIKHFKDWNNFFKLHGNDFDEIHFNYSAPWNFIAILLAKLKSKAKIIVQSHNNYYSKQPKGLQKKVLAVLNVTGRTVIGRCSDIRLAVSEDSAQWMFGKRNVQILKNGINLKDFEYQPGPREELRKSIGINKGKKIIGFVGTLEKRKNPYFAIECLKKLNKEYILLMFGQGVLKKDLEKKIMDEGLEHRIKLMGVVDNLNEWYSVFDLFLFPSLTEGFGFALLEAQANGLKCFSSTSIPKEAKITNDVTSLNLSEINKWIDEIEKTSINDRERRSKQNCRIIEKKGFSIENTSKQFKRILLGDLS”: the “soluble on expression in E. coli” value is “not soluble”.

Turning to GSAAEVMKKYCSTCDISFNYVKTYLAHKQFYCKNKP, the “soluble on expression in E. coli” value is reported as “soluble”.

“MKTFFIVASLLAVGLVLAEDSEEKSEVKDVKPWKKLDFKKREPEFLKEMSQDAKTAYFGIKFNPELTKAEKTRMLKEWADQYDVEDDMQKFLDAKKADCDKKKQERKDNYERLGDLIEKADEILDDQENTWNGANEKLEALVKDENRDVMKAFQSFYPFVGRDSEGPRHGHGHGHGHRFHHGRRFGRNIGGGAAPRYNGGGIGSGISIGENPRHHNGGIGSGISMGERHRDGESYDAYGNSKHHHKKHHGF”: the “soluble on expression in E. coli” value was “not soluble”.
